One may read the Kd as the constant that tells how readily two partners part at equilibrium. What is called stoichiometry N is a count of units in the complex or per binding partner.

Where a chain is given by its changes, count along the chain named. Read-outs that look alike come from different tables or passages of the source.

Experiment [1] deals with T1, S. cerevisiae Rpn14 (recombinant) (S. cerevisiae, UniProt P53196 1-417). Put plainly: NMR titration.
In experiment [2] the target is T1, S. cerevisiae Rpn14 (recombinant). Put plainly: AUC.
Experiment [3] shares this target. The experiment in a line: AUC. The source holds these as a separate data set.

T1 sequence (P53196 whole entry): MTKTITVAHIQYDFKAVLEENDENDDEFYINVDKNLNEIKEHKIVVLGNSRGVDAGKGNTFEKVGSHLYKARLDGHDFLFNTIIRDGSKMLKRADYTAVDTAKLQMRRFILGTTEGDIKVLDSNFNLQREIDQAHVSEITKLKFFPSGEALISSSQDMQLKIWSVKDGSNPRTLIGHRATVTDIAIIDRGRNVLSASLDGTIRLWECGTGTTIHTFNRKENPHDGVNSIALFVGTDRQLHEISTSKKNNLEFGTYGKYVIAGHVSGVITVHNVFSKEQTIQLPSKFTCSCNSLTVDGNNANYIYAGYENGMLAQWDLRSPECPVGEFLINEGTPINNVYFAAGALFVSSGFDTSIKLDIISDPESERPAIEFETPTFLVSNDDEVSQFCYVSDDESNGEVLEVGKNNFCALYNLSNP

B1: Rpt6-C (P318-N393) (domain or fragment, S. cerevisiae, UniProt Q01939 318-393, looked up)
chain: PPSVAARAEILRIHSRKMNLTRGINLRKVAEKMNGCSGADVKGVCTEAGMYALRERRIHVTQEDFELAVGKVMNKN
For B1, the binding result in experiment [1] is given as “binds”.

B2: S. cerevisiae Rpt6 C-terminal domain (Rpt6-C), P318-K405 (domain or fragment, UniProt Q01939 318-405, looked up)
chain: PPSVAARAEILRIHSRKMNLTRGINLRKVAEKMNGCSGADVKGVCTEAGMYALRERRIHVTQEDFELAVGKVMNKNQETAISVAKLFK
In the case of B2, in experiment [2], the Kd stood at 0.25 nM and the “stoichiometry N” value turned out to be 1.

B3: Rpt6-C G^360,387A (domain or fragment, S. cerevisiae, UniProt Q01939 318-405, looked up)
chain: B2 chain with G43A, G70A
Take B3: the Kd in experiment [3] worked out at 0.01 nM.

Source of the values: PMC3670613 (Structure (London, England : 1993), 2013).
